His6-PomZ ATPase activity (NADH-coupled assay, 1 mM ATP, 32°C) with DNA, PomX^NPEP peptide up to 15 µM, 4 µM His6-PomZ data for one molecule are collected here from publication PMC7993993.

For this test, the target named is T1, His6-PomZ (M. xanthus) (UniProt Q1DEM0).
T1 sequence: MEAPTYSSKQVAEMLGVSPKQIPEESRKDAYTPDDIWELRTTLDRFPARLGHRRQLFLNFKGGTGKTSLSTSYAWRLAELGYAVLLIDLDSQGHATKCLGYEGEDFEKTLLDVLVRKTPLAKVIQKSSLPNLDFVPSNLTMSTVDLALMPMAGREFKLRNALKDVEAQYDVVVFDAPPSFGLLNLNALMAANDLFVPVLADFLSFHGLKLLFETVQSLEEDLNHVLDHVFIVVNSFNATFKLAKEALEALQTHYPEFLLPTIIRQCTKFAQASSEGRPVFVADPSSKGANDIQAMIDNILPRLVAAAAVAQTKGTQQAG

For MKKAFEQNVSRAKPRLRLGALT [PomX^NPEP peptide], the His6-PomZ ATPase activity (NADH-coupled assay, 1 mM ATP, 32°C) with DNA, PomX^NPEP peptide up to 15 µM, 4 µM His6-PomZ is 27 ATP hr^−1.
